Data on two proteins can be found in US20190017997.

One data set has as its target T1, CRTC1 S151A/T449A.
T1 chain: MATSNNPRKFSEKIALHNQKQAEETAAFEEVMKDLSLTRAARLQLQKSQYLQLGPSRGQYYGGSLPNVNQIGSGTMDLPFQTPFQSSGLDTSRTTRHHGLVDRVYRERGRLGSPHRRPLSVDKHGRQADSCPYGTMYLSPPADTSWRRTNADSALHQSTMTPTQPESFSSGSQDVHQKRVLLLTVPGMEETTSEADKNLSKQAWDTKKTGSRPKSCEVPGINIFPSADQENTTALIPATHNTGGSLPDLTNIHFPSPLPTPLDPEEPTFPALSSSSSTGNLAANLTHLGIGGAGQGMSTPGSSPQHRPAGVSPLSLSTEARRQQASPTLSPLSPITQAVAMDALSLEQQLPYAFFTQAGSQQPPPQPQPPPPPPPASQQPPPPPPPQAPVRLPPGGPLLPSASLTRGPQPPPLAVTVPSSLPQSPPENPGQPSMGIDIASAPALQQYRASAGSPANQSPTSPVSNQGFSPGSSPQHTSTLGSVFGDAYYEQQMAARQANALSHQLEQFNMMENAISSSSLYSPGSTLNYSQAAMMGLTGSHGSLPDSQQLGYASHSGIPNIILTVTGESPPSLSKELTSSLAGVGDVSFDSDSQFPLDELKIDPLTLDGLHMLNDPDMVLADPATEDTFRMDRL

For data set [1], the target named is T2, CRTC1 (CREB-regulated transcription coactivator 1).
T2 chain: T1 chain with A151S, A449T

Data set [2] concerns the target CREB (cyclic adenosine 3',5'-monophosphate response element-binding protein), P16220.
The target in another data set is T3, CRTC1 S151A/S215A.
T3 chain: T1 chain with S215A, A449T

The target of the next data set is T4, CRTC1 S151A.
T4 chain: T1 chain with A449T

Numbering of substitutions follows the chain as printed. Names may count otherwise.

Chain of CREB (cyclic adenosine 3',5'-monophosphate response element-binding protein), P16220 (P16220 whole entry): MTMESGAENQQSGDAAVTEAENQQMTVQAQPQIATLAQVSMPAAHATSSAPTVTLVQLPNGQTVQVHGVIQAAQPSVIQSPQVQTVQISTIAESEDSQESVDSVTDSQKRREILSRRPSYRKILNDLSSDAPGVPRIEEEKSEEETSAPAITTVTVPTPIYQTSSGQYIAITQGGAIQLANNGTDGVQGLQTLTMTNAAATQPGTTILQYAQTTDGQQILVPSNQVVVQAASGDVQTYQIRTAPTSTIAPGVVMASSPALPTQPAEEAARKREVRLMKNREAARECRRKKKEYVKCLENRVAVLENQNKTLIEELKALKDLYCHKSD

B1: PAK4 (p21-activated kinase 4) (protein)
chain: MFGKRKKRVEISAPSNFEHRVHTGFDQHEQKFTGLPRQWQSLIEESARRPKPLVDPACITSIQPGAPKTIVRGSKGAKDGALTLLLDEFENMSVTRSNSLRRDSPPPPARARQENGMPEEPATTARGGPGKAGSRGRFAGHSEAGGGSGDRRRAGPEKRPKSSREGSGGPQESSRDKRPLSGPDVGTPQPAGLASGAKLAAGRPFNTYPRADTDHPSRGAQGEPHDVAPNGPSAGGLAIPQSSSSSSRPPTRARGAPSPGVLGPHASEPQLAPPACTPAAPAVPGPPGPRSPQREPQRVSHEQFRAALQLVVDPGDPRSYLDNFIKIGEGSTGIVCIATVRSSGKLVAVKKMDLRKQQRRELLFNEVVIMRDYQHENVVEMYNSYLVGDELWVVMEFLEGGALTDIVTHTRMNEEQIAAVCLAVLQALSVLHAQGVIHRDIKSDSILLTHDGRVKLSDFGFCAQVSKEVPRRKSLVGTPYWMAPELISRLPYGPEVDIWSLGIMVIEMVDGEPPYFNEPPLKAMKMIRDNLPPRLKNLHKVSPSLKGFLDRLLVRDPAQRATAAELLKHPFLAKAGPPASIVPLMRQNRTR
In the case of B1, the “phosphorylation by PAK4 (kinase analysis of CRTC1 variants)” value is “CRTC1^S151A and CRTC1^S151A/T449A were slightly phosphorylated” in the data set with CRTC1 S151A/T449A; “CRTC1^S151A/S215A, was not phosphorylated” with CRTC1 S151A/S215A; “CRTC1^S151A and CRTC1^S151A/T449A were slightly phosphorylated” with CRTC1 S151A. Further, the “phosphorylation of CRTC1 (in vitro kinase assay)” value in data set [1] was “PAK4 phosphorylates CRTC1”. In data set [2], the “phosphorylation of CREB” value is recorded as “PAK4 does not induce phosphorylation of CREB”.

B2: caPAK4 (PAK4 S445N/S474E, constitutively active PAK4) (protein)
chain: B1 chain with S445N, S474E
In the case of B2, in data set [1], the “substrate of the kinase (kinase analysis)” value is “CRTC1 is a substrate of caPAK4”.
